Assay results: IntAct's records for PubMed 31324769

Tests used:
mon2_human MON2 = mon2_human MON2 (UniProt Q7Z3U7)
klc2_human KLC2 = klc2_human KLC2 (UniProt Q9H0B6)
Chain of klc2_human KLC2 (Q9H0B6 whole entry): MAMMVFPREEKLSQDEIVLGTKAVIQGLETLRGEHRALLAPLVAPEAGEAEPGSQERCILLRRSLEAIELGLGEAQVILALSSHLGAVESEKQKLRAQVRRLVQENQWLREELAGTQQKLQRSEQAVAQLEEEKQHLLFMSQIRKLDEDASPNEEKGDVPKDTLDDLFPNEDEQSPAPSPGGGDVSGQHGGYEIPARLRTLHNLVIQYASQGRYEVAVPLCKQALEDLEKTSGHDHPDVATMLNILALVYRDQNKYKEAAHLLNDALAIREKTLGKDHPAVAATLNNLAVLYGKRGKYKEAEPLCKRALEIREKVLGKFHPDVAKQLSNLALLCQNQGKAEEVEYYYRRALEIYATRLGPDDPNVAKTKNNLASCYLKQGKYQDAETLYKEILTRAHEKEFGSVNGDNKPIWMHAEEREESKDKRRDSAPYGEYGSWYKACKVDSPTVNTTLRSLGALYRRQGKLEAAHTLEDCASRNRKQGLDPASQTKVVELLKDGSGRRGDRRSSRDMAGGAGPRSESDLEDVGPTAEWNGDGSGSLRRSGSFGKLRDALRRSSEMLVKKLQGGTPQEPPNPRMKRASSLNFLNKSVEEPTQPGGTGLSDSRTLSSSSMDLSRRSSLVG

Chain of mon2_human MON2 (Q7Z3U7 whole entry): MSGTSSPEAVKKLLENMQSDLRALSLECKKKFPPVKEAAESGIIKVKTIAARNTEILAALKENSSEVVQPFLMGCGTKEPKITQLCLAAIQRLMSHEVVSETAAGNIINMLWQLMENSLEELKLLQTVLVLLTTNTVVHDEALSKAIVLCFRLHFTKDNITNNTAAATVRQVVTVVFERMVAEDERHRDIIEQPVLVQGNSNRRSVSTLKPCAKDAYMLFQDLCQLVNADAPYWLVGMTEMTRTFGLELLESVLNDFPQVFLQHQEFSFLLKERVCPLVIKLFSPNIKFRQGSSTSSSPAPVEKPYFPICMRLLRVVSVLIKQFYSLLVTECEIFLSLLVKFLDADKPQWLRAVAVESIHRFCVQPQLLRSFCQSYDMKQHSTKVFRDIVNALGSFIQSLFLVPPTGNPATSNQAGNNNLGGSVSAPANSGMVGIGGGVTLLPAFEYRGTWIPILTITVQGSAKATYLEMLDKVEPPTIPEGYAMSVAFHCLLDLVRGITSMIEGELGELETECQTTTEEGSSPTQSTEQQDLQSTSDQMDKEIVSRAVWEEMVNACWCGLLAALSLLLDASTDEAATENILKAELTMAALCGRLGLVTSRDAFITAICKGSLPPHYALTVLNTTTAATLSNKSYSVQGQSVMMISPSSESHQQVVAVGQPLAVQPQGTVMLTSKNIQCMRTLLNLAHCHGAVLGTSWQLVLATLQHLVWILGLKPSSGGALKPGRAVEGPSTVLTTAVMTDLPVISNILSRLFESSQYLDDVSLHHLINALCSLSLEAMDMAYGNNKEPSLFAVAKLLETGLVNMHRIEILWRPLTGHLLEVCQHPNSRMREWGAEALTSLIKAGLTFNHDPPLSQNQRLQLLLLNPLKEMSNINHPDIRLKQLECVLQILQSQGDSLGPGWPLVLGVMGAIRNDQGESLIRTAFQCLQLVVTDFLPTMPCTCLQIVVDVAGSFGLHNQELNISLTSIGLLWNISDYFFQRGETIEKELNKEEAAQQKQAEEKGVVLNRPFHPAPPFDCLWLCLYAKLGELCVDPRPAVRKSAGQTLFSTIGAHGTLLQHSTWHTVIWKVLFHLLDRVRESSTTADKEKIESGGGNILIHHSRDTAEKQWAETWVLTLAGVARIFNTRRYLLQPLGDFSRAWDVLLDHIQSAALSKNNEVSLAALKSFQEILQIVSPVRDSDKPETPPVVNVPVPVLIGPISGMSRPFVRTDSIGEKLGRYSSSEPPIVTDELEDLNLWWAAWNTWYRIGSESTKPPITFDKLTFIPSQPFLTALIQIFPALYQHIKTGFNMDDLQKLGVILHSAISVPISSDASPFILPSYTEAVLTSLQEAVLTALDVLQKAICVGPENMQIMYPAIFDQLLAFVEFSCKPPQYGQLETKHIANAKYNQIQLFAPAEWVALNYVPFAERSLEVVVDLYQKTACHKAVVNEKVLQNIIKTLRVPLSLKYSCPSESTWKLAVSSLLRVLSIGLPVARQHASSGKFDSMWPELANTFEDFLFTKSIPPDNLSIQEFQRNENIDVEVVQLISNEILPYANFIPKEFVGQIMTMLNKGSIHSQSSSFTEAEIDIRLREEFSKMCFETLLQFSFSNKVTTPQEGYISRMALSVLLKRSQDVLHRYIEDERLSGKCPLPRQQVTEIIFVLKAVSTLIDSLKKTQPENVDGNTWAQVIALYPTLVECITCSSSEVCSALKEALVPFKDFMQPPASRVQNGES

Row | effect of a mutation on the interaction (mon2_human MON2) | effect of a mutation on the interaction (klc2_human KLC2) | Substance
1 | with no effect | – | Protein DOP1A (Homo sapiens), Q5JWR5 L2178A;K2179A;R2180A;L2181A
2 | – | disrupting interaction strength | Protein DOP1A (Homo sapiens), Q5JWR5 W186A
3 | – | disrupting interaction strength | Protein DOP1A (Homo sapiens), Q5JWR5 W34A
